# Laboratory results from article doi:10.1101/2025.02.19.638559, “The architecture, assembly, and evolution of a complex flagellar motor” (bioRxiv, 2025).
# T1: PflA_(16–788)-Strep (C. jejuni 81-176, UniProt Q46092 16-788)
# T1 chain: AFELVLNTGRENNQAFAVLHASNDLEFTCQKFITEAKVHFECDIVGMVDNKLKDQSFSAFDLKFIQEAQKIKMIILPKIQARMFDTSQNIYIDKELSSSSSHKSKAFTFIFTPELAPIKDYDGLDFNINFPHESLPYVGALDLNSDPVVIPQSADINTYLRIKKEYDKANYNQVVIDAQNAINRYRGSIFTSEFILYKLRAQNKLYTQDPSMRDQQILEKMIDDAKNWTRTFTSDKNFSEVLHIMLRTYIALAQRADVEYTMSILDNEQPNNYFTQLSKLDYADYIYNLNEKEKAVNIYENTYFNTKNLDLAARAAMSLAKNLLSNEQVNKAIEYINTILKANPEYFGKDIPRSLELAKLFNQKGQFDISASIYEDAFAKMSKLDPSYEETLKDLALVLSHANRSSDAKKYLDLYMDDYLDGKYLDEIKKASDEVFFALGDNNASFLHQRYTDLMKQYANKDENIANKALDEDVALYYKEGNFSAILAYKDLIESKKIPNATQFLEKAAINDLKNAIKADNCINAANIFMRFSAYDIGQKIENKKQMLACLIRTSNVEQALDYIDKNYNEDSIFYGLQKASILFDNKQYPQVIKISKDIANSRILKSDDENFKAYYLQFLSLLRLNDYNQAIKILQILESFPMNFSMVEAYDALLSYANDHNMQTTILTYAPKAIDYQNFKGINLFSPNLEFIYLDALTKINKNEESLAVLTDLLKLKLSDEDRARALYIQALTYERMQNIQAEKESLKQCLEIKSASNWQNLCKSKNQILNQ
# T2: PflB_(113–820) (C. jejuni 81-176, UniProt A0A6F9L7Y3 113-820)
# T2 construct: PflB of C. jejuni 81-176, residues 113-820; 178-820 resolved in the cryo-EM structure; also called PflB_(178–820) (the part built in the model)
# T2 sequence: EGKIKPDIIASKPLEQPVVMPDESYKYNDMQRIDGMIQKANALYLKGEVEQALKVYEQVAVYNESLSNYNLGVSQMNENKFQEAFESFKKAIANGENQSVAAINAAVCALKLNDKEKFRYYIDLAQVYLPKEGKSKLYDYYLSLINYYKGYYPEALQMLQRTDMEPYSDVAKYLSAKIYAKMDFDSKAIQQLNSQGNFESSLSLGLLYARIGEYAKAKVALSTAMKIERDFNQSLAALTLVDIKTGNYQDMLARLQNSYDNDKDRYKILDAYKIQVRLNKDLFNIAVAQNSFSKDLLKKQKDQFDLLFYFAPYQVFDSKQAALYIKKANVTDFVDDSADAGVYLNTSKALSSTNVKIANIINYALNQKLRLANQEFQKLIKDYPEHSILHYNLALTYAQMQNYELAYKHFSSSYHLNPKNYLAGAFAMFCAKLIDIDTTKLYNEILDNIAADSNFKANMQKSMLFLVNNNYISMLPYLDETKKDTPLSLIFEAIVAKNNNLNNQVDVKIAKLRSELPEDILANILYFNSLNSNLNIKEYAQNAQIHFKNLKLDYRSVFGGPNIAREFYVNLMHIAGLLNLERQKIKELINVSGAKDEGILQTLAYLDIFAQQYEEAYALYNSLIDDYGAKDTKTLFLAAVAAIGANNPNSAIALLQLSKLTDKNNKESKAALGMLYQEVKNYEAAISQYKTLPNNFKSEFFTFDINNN
# B1: FlgY_(15–172), FlgY without the predicted signal peptide (domain or fragment)
# chain: VFGAEQDCEQYFEARKAQIELQTREFDEARQSLEAYKASFEALQKERLENLEKKEAEVNATLAKIEELKLENARLVEEQQKILNSINDKTQGRVKEIYSQMKDAAIADVLSQMDAEDASKIMLSLESRKISGVLSKMDPKKASELTLLLKNLDNNASN
# B2: PflA_(16–788) of the purified PflA_(16–788) and PflB_(113–820) complex (domain or fragment)
# chain: T1 chain
# notes: PflA of C. jejuni 81-176, residues 16-788; only 16-163 (β-sandwich domain and flexible loop) are resolved in the cryo-EM structure; PflA16-788 was cloned both in pET22b (C-terminal 6×His) and in pET26b (C-terminal Strep-tag); also called PflA_(16–163) (the part resolved in the map)
# Tests used:
# [1] = target: FlgY_(90–172) (C. jejuni 81-176); assay: SEC; Superdex 200 Increase 10/300 GL; 20 mM Tris-HCl pH 8.0, 300 mM NaCl
# [2] = target: FlgY_(15–172), FlgY without the predicted signal peptide (C. jejuni 81-176); assay: as above
# [3] = target: T1, PflA_(16–788)-Strep; assay: MST
# [4] = target: T2, PflB_(113–820); assay: cryo-EM structure; single-particle cryo-EM of the purified PflA16-788 and PflB113-820 complex at 0.4 mg/ml; 3.23 Å; conditions: both partners purified
molecule,measurement,setting,value
FlgY_(90–172) (domain or fragment),stoichiometry N,[1],2
"FlgY_(15–172), FlgY without the predicted signal peptide (domain or fragment)",stoichiometry N,[2],2
B1,Kd,[3],3.5 µM
B2,stoichiometry N,[4],1
